Measured values published in patent US20240052042A1 (Novartis, published 2024).
Changes are numbered by the printed parent chain. Read-outs that look alike come from different tables or passages of the source.

Experiments:
rat NPR1 (rNPR1) = molecular target: T1, rat NPR1 (rNPR1) (rat, UniProt P18910 29-469, limits assumed); test: ELISA, IgG titrated on coated antigen, fluorescence [Cont.]
T1 construct: Soluble antigen
T1 sequence: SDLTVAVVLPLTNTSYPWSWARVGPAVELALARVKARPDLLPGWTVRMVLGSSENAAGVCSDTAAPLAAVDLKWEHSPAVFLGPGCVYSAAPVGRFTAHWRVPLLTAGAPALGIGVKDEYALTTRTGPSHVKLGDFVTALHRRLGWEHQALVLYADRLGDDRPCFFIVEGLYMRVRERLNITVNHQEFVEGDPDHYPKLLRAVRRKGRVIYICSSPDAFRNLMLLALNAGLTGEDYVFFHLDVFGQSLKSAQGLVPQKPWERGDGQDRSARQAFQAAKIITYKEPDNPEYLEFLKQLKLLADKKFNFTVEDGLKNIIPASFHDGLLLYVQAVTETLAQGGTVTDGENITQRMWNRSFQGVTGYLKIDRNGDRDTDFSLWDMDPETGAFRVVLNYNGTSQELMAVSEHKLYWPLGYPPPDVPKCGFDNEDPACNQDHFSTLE

[1] = molecular target: human NPR1 on CHO-K1 cells in the presence of ANP (human) (UniProt P01160); test: flow cytometry, hNPR1 CHO-K1 cells, IgG
[2] = molecular target: W74R hNPR1 mutant in the presence of ANP (human) (UniProt P01160); test: ELISA, IgG
[3] = molecular target: constitutively active human NPR1 mutant (W74R) (human) (UniProt P16066); test: ELISA, IgG
rNPR1-ANP complex = molecular target: T2, rNPR1-ANP complex (rat, UniProt P01160 124-151 (human entry), limits assumed); test: ELISA, IgG titrated on coated antigen with ANP (250 fold molar excess), fluorescence [Cont.]
T2 construct: rNPR1 antigen in the presence of ANP; also called rNPR1 + 100 nM ANP
T2 sequence: T1 sequence
T2 sequence (peptide): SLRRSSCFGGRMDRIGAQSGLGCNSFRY

[4] = molecular target: T3, human NPR3 in the presence of ANP (human, UniProt P17342 27-481; P01160 124-151, limits assumed); test: as above
T3 construct: also called hNPR3 + 100 nM ANP
T3 sequence (looked up): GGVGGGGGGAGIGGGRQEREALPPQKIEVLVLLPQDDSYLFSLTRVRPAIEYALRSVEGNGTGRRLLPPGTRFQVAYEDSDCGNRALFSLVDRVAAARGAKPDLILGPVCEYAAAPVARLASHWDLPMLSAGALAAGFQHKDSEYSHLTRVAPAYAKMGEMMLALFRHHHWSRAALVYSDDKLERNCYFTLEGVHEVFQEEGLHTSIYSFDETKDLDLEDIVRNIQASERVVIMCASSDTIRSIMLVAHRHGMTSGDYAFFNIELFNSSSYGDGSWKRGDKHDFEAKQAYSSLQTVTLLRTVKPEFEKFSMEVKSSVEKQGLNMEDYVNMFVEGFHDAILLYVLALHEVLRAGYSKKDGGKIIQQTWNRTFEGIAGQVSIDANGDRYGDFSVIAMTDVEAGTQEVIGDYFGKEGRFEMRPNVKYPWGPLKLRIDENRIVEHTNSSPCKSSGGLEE
T3 sequence (peptide, looked up): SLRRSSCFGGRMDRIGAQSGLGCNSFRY

[5] = molecular target: T4, human NPR3 (counter target) (human, UniProt P17342 27-481, limits assumed); test: ELISA, IgG titrated on coated antigen, fluorescence [Cont.]
T4 construct: Pannings used hNPR3-hFc; also called hNPR3; hNPR3-hFc
T4 sequence (looked up): T3 sequence (looked up)
Method: Furthermore, the clones were tested via ELISA for binding to the following antigens: human NPR1, constitutively active human NPR1 mutant (W74R), rat NPR1, human NPR3 (counter target), each in the absence and presence of ANP, and BSA. The clones were also analyzed by flow cytometry for binding to human NPR1 expressing CHO K1 cells in absence and presence of ANP (100 nM) and to parental CHO K1 cells.

[6] = molecular target: T5, human NPR1 on CHO-K1 cells in the presence of ANP (human, UniProt P01160 124-151); test: flow cytometry (FL2-H) on hNPR1 CHO-K1 cells with saturating ANP, IgG titrated; control parental CHO-K1 [Cont.), panel XX06]
T5 construct: also called hNPR1 CHO K1 + 100 nM ANP
T5 sequence: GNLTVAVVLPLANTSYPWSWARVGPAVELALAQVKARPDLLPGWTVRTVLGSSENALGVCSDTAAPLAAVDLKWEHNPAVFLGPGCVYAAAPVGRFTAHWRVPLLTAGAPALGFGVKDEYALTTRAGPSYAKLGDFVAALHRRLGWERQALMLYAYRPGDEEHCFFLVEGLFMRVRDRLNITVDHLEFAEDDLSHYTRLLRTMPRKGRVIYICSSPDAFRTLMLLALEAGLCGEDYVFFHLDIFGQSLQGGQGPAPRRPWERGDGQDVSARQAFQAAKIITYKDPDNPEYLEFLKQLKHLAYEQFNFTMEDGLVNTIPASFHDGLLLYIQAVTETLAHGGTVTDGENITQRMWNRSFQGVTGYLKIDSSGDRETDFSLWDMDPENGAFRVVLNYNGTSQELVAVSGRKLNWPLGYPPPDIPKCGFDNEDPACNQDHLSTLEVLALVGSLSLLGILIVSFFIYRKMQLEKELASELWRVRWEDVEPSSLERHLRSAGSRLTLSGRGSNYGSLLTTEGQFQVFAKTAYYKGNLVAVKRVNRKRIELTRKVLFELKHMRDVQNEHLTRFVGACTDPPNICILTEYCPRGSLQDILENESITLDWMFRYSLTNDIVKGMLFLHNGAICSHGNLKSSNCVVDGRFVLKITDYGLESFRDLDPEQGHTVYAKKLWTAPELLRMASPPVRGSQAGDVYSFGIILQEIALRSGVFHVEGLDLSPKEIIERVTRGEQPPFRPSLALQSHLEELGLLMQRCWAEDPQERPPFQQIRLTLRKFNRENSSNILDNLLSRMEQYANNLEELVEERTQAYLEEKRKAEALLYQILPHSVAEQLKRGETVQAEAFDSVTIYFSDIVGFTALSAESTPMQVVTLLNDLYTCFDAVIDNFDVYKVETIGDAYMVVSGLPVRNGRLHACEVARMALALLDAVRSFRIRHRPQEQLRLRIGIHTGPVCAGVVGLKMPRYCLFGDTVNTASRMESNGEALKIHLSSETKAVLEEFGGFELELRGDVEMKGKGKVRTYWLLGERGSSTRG
T5 sequence (peptide): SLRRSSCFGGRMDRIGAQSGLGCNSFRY

hNPR1-ANP complex [7] = molecular target: T6, hNPR1-ANP complex (human, UniProt P01160 124-151, limits assumed); test: FRET ANP competition assay, IgG titrated on hNPR1 with Cy5-labeled ANP; negative values mean more ANP signal [Cont.), panel XX06]
T6 construct: hNPR1 antigen in the presence of ANP; also called hNPR1 + 100 nM ANP
T6 sequence: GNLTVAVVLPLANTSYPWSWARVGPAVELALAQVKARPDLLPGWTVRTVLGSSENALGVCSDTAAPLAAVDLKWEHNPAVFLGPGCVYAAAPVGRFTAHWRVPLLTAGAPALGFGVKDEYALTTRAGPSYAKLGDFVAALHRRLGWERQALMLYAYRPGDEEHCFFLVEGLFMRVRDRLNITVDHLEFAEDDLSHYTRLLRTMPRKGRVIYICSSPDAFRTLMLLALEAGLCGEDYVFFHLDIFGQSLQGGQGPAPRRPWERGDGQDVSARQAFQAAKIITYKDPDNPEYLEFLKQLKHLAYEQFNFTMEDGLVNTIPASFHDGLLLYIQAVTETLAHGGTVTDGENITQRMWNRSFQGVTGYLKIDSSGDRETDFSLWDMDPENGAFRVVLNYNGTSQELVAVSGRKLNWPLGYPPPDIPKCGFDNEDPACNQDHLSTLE
T6 sequence (peptide): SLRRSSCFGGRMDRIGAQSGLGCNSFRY
Method: (§1) The same 31 IgGs were tested for ANP competition using a Fluorescence Resonance Energy Transfer (FRET)-based assay in which the NPR1-specific antibodies competed with ANP for binding to NPR1. In this FRET based assay (see FIG. 3), Eu-labeled Streptavidin (for measurement of IgGs) or Eu-labeled anti-hFc antibody (for measurement of FabCys) was used as an energy donor, while Cy5-labeled ANP was used as an acceptor (for all measurements). The resulting fluorescent signal was decreased by ANP-competitive antibodies. The assay was performed as follows: antibodies were mixed with NPR1 and incubated for 5 minutes at room temperature. After addition of the Eu-labeled donor and incubation for 30 minutes at room temperature, the Cy5-ANP solution was added. After a further 60-minute incubation, readout was performed using a TECAN Infinite M1000 Pro using an excitation wavelength of 317 nm and an emission wavelength of 665 nm. Percentage of ANP competition was calculated according to the following formulae: […]

[8] = molecular target: T5, human NPR1 on CHO-K1 cells in the …; test: flow cytometry (FL2-H) on hNPR1 CHO-K1 cells with saturating ANP, IgG titrated; control parental CHO-K1 [panel XX03]
[9] = molecular target: T4, human NPR3 (counter target); test: ELISA, IgG titrated on coated antigen, fluorescence [Cont.]; remark: listed apart in the source
[10] = molecular target: T3, human NPR3 in the presence of ANP; test: ELISA, IgG titrated on coated antigen with ANP (250 fold molar excess), fluorescence [Cont.]; remark: listed apart in the source
hNPR1-ANP complex [11] = molecular target: T6, hNPR1-ANP complex; test: FRET ANP competition assay, IgG titrated on hNPR1 with Cy5-labeled ANP; negative values mean more ANP signal [panel XX01]
Method: as §1

[12] = molecular target: T5, human NPR1 on CHO-K1 cells in the …; test: flow cytometry (FL2-H) on hNPR1 CHO-K1 cells with saturating ANP, IgG titrated; control parental CHO-K1 [panel XX01]
[13] = molecular target: T5, human NPR1 on CHO-K1 cells in the …; test: flow cytometry (FL2-H) on hNPR1 CHO-K1 cells with saturating ANP, IgG titrated; control parental CHO-K1 [panel XX04]

B1: WW06 (IgG format) (antibody, V domains shown)
VH: QVQLVQSGAEVKKPGESLKISCKGSGYSFTSYWIAWVRQMPGKGLEWMGRIDPDNSYTRYSPSFQGQVTISADKSISTAYLQWSSLKASDTAMYYCARWLSPGYALGEQPAGMDHWGQGTLVTVSS
VL: DIVLTQPPSVSGAPGQRVTISCTGSSSNIGAGYAVHWYQQLPGTAPKLLIYSNNKRPSGVPDRFSGSKSGTSASLAITGLQAEDEADYYCQSYDLQKSSRVFGGGTKLTVLG
notes: also called WW06_LALA
Which results are given for B1?
binding result (rat NPR1 (rNPR1)): no binding (tested: 1000 nM); flow cytometry S/BG at 2 µM IgG [1]: 1.1 S/BG; EC50 [2]: 0.8 nM; EC50 [3]: 0.9 nM; binding result (rNPR1-ANP complex): no binding (tested: 1000 nM)

B2: XX06 (IgG format) (antibody, V domains shown)
VH: QVQLLESGGGLVQPGGSLRLSCAASGFTFSSYWMNWVRQAPGKGLEWVSAISSDGSYTYYADSVKGRFTISRDNSKNTLYLQMNSLRAEDTAVYYCARDRYSMIYSYGAGAFDYWGQGTLVTVSS
VL: DIQMTQSPSSLSASVGDRVTITCRASQGISSYLAWYQQKPGKAPKLLIYTASTLQSGVPSRFSGSGSGTDFTLTISSLQPEDFATYYCQQTWRKPRTFGQGTKVEIK
Does B2 bind [4]?
Result: no binding (tested: 200 nM)

Does B2 bind [5]?
Result: no binding (tested: 200 nM)

And the “EC50 (read off the curve)” value [6]?
Its value is about 2 nM.

What about the “EC50 (read off the curve)” value (hNPR1-ANP complex [7]) of the same binder?
Its value is about 0.2 nM.

B3: XX03 (IgG format) (antibody, V domains shown)
VH: B2 VH with Q1E, A50V, S52E, D54K, S56N, T58I, Y59F
VL: B2 VL with Q89M, T91S, W92Y, R93E
For B3, which “EC50 (read off the curve)” value [8] is on record?
The value was about 1 nM.

Does B3 bind [9]?
Result: no binding (tested: 200 nM)

Does B3 bind [10]?
Result: no binding (tested: 200 nM)

B4: XX01 (IgG format) (antibody, V domains shown)
VH: EVQLLESGGGLVQPGGSLRLSCAASGFTFNTHYIHWVRQAPGKGLEWVSSISSSGQSTYYADSVKGRFTISRDNSKNTLYLQMNSLRAEDTAVYYCARERGYVYYHMFDPWGQGTLVTVSS
VL: DIVLTQSPATLSLSPGERATLSCRASQSITRNYLAWYQQKPGQAPRLLIYGASSRATGIPARFSGSGSGTDFTLTISSLEPEDFAVYYCQQHSMYPRTFGQGTKVEIK
For B4, which “EC50 (read off the curve)” value (hNPR1-ANP complex [11]) is on record?
Its value is about 0.1 nM.

What about the “EC50 (read off the curve)” value [12] of the same binder?
The value was about 0.8 nM.

B5: XX04 (IgG format) (antibody, V domains shown)
VH: B2 VH
VL: B2 VL with T91E, R93V
How did the “EC50 (read off the curve)” value [13] turn out when B5 was run?
The value was about 2 nM.
